The source of these data is doi:10.1101/2021.02.24.432656 (bioRxiv, 2021).

For the assay, the target named is T1, bacterially purified STAT1 recombinant protein (human, UniProt P42224 1-750).
T1 sequence: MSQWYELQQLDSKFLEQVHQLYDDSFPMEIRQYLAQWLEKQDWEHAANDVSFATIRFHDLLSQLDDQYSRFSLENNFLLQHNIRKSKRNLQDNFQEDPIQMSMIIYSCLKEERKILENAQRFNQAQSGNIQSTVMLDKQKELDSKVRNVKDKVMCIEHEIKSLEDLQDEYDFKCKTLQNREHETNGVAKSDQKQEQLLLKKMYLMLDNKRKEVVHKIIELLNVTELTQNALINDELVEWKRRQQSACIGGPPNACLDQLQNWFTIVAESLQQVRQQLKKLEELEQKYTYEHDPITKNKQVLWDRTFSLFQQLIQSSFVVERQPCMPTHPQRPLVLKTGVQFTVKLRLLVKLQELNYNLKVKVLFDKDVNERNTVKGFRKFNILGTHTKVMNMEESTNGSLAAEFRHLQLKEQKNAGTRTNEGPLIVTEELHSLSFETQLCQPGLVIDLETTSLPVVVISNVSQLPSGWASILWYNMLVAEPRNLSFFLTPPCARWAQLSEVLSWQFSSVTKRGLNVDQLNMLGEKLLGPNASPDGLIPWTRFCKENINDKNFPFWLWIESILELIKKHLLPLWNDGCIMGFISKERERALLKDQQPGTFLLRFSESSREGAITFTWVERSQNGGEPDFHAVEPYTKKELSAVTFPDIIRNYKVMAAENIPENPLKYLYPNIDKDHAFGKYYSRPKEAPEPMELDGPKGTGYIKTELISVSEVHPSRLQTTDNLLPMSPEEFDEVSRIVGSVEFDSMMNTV
The experiment in a line: pull-down.

Consider YSQLDEEQPMEID (domain or fragment) [GST-GFP fused with the C-terminal peptide of ORF6 wild type (49-61 amino acids)], for which the binding result is “binds”.
